Experimental data taken from the DeepSol protein solubility set.

Experiment: soluble on expression in E. coli; label from the status in PepcDB or PDB records

With “MGSDKIHHHHHHMSELSQLSPQPLWDIFAKICSIPHPSYHEEALAAHILEWAKEKGIYAERDQVGNILLRKAATAGMENRKPVVLQAHLDMVPQKNNDTVHDFTTDPIQPYVDGEWLKARGTTLGADNGIGMASALAVLADPSVEHGPLEVLLTMTEEAGMDGAFGLQPNWLQGEILINTDSEEEGEIYMGCAGGIDFITRLPLVREVPPAGYQTLKLTIKGLKGGHSGGDIHLGLGNANKLLARFLFEQAEALDIRILDLNGGTLRNAIPREAFATLSLPAANVEQLKTLSQDYLAVLKNELSAVEKNLTVLVEANDSNEHPLTQDSRDRLLGLLNATPNGVIRMSDDVKGVVETSLNLGVVTMEDDHAEIICLIRSLIDSGKDAVVGTLTALGQLAGAKTSPKGGYPGWQPDAHSPVMALVRETYQKQFNKTPNIMVIHAGLECGLFKKPYPDMDMVSIGPTITGPHSPDEQVHIGSVDLYWKLLTELLKAIPPRA” as the sequence, how does the “soluble on expression in E. coli” value read?
Its value is “not soluble”.

With “MGSDKIHHHHHHMSEPLRIIHGAFGRVALLLLDRTMAVHAHRVCHVVFKIGGVDILFGVRELEHYLSDDNVLLVNAWEPHFYNHNRDAPSTVLLALYLEPQWLRKVDTRFSCSAHPKFFSQPILALGSKLAGLRADLLDLLTGRESTGSRVVEDLIVRTIIELACVGTRWKELLECQLMGSLAYDARIRQSLDEMKSRGGVALDFDEIASSVGLSRPHFFHLFRKQIGMTPATFGSMLRMEASIDSLAATDTAIHDIARHLGFDSPGNFTRFFLCQQGVTPSQYRRKVEFTTLTCS” as the sequence, how does the “soluble on expression in E. coli” value read?
The value was “not soluble”.

Which “soluble on expression in E. coli” value does the source give for “MGSDKIHHHHHHMSFDRPEIYSAPVLQGESPNDDDNTEIIKSFKNFILEFRLDSQFIYRDQLRNNILVKNYSLTVNMEHLIGYNEDIYKKLSDEPSDIIPLFETAITQVAKRISILSRAQSANNNDKDPENTSMDTDSLLLNSLPTFQLILNSNANQIPLRDLDSEHVSKIVRLSGIIISTSVLSSRATYLSIMCRNCRHTTSITINNFNSITGNTVSLPRSCLSTIESESSMANESNIGDESTKKNCGPDPYIIIHESSKFIDQQFLKLQEIPELVPVGEMPRNLTMTCDRYLTNKVIPGTRVTIVGIYSIYNSKNGAGSGRSGGGNGGSGVAIRTPYIKILGIQSDVETSSIWNSVTMFTEEEEEEFLQLSRNPKLYEILTNSIAPSIFGNEDIKKAIVCLLMGGSKKILPDGMRLRGDINVLLLGDPGTAKSQLLKFVEKVSPIAVYTSGKGSSAAGLTASVQRDPMTREFYLEGGAMVLADGGVVCIDEFDKMRDEDRVAIHEAMEQQTISIAKAGITTVLNSRTSVLAAANPIYGRYDDLKSPGDNIDFQTTILSRFDMIFIVKDDHNEERDISIANHVINIHTGNANAMQNQQEENGSEISIEKMKRYITYCRLKCAPRLSPQAAEKLSSNFVTIRKQLLINELESTERSSIPITIRQLEAIIRITESLAKLELSPIAQERHVDEAIRLFQASTMDAASQDPIGGLNQASGTSLSEIRRFEQELKRRLPIGWSTSYQTLRREFVDTHRFSQLALDKALYALEKHETIQLRHQGQNIYRSGV” here?
Its value is “not soluble”.

Which “soluble on expression in E. coli” value does the source give for “MGSDKIHHHHHHMSFELHPRYLEVHLHGRLCGFLCEAGGNTRFVPTDEYRGDNERYTLSLSITLPTEIGREATSAVFDNAFHPAIYNTGGELPPYFAGLLPEGELRKRLESTRTNPEDKDDFGVLASAGNDLPGAIVVKPADVRALPGYVRTYGVTGGADNLEIAVVEGATEGAASVSGVQNKLALSTMRKGERYTLPTKGKVSDIIAKLPAKNDDSQVFNEYVSMHLAAAAGVNIAPIQVLPMSSIDVPDLADLMGKGLHYLAVERFDRAADGGLLHAEDGCQMLGRMPNRKYAKREEYIRLLAALYRLSPKGFENVRQFFLRQAVNTLIGNSDAHLKNFSVIYRDRKLPELSPAYDIVCVAALPNFTSYGQNVAIDEIQRKETMDLYEDIADKAGIPRRIATAAVKEAVSMAHAHWPGLLEKMGASQALRDVIAERLENLPLAKVGRPTRKGA” here?
Its value is “not soluble”.

With “MGSDKIHHHHHHMSFFKTPLIGLKADSFRHPLDLEATKTLKQIPGIDMLVRNWLGPMAEQVFYVENIASSILVGEKQLPDLYKLLLDACEILDIEPPQLYVRQHPAPNAYTFAVRGKQPFVVLHTSLIDILTPEEIQAVIAHELGHLKCDHSVYLTPVNLLILAAAIVPNVGTFVAQAIQAQLLEWVRCAEFTCDRAALLATQDPKVVMSVLMKLAGGSPTLAPQLNLDAFVAQARAYDDISKTELGEMVKTARTAQLTHPVPVLRAREIDRWASSTEYQSLIQSHGLKSTSKEVAPKGGWRNW” as the sequence, how does the “soluble on expression in E. coli” value read?
Its value is “not soluble”.

Which “soluble on expression in E. coli” value does the source give for “MGSDKIHHHHHHMSFYIYGILTLPAPQNLNLEGLDRQPVQIKILDDFAVIYSEAQQERYLASRRNLLSHEKVLEEIMQAGDRYLLPVQFGLLVSSWETVSQQLIRPHQEELTQLLAKLSGCREVSVKVFWDTEAEIQGLLAEHPNLKTERDKLVGQPLSMERVIQIGQVIEQGMSDRKQGIIDVFKGTLNSIAIEVVENTPQVDTMIYNSAYLIPWEAESQFSEHVESLDRQFENRLRIRYNNFTAPYNFARLRLTTSN” here?
Its value is “not soluble”.

Which “soluble on expression in E. coli” value does the source give for “MGSDKIHHHHHHMSGAKVISVMNWKGGVGKTTMTHHLGTGLHMLTKEERLEYLGSEKMPRILFVDNDAQCNLSISCLHVEKYEDLVYKQNIPTIYDLYKLFICNESPVVDMHNYIIKNQVRMDNRRIFMGMDLLPAHQELVYLDMNIAMNSRASFQSGLISKEIYKYQYLNDILEPVCSDYDYIFIDCPPNLGYTTLNALYASEYCLIPTGLDHLSSYGIASLLKEIDRLNTEFATAVPDHPMIEVVGIVANNVEENREAPKRSQKLIRERLQDSYHELMFEPYLTRGDGIPNASEQGYPVYADRSANALKQGDLLLGILREFLDRI” here?
The value was “not soluble”.

For “MGSDKIHHHHHHMSHGAIKHHRHRGRVMYHLRVPESAEDLDAYYQFRWEMLRKPLHQPLGSERDAYDALAHHQTVVDEQGRLVAIGRLSINADNEAAIRFLAVHPDLRGKGLGTLLAITLESVARQEGVKRVVCSAREDAMDFFSKLGFVNQGEISAPQTTPVRHFLMIKPVATLDDILHRADWCGQLQQAWYDHIPLSEKMGVRISQYTGKKFITTMPEAGNQNPHHTLFAGSMFSLATLTGWGLIWLLLRERHLGGTIILADAHIRYSTPVSGRPSAIADLGSLSGDLDRLARGRKARVQLNVELFGDDNKGALFEGVYIVLPAQPDAPLEEGGSEVD”, which “soluble on expression in E. coli” value is on record?
The value was “not soluble”.

Which “soluble on expression in E. coli” value does the source give for “MGSDKIHHHHHHMSHPEPYFQCNDPALSPAERANWIAVLPLGAHEQHGPHLPFETDTIIAQGVVDRLILALPDTLPVTFLPVEPVGYSVEHMDVFGTRTLTFNEAVERWLGIAETLSGQGIRKLMMLNAHGGNSPLMTVVATEARIRFSMLAVATSWTRFGQPDGLIRPEDKAIDIHGGDIETSVMLALRPDLVAMDKAQNFSSRQSEFAARFTHLRAYGPHAFGWKMADLNPLGVAGNASVATAEKGENLLSHAVHGLVELLWDIHDFDIEKAFELPPHSSYMG” here?
The value was “not soluble”.

Which “soluble on expression in E. coli” value does the source give for “MGSDKIHHHHHHMSHSTDLSALARWMAADFSNQAQAFENPPFYAHIRVAIRPLDQAKFGDRLLFLEQAYDFMLQRPYRLRVLKLKVVEDHIEIENFKVKDEEKFYGAARDLGKLAQLTPADLEPMHGCDMIVEWTGTSFKGEVQPGRQCRVMRDGKETYLENSFEVSETGLISLDRGYDPETNERVWGSVAGAFHFVRWQSFADEVSF” here?
The value was “not soluble”.

For “MGSDKIHHHHHHMSIAPFLEAAGWAEATATPLAGDASSRRYTRLSRGAETAVLMQAPVATKADHASFDAFRKIGAHLRGQNLSAPKEYAADPTNGLILMEDLGDQTLARLLKDDAQTAQIAYNATANLLPHLKVHAPPHLAAPDARAMAQMVALTFDQLPDSAILRDTLLEALAEALTTHAPGAPTLSLRDVHAENLLWLPDRDGPARVGLLDFQDALLLPEGYDLASLLDDPRREVPEVWRADLIAAHSAPTRIAVLSLQRNLRILGIFRRLSTTLGKPAYGAFLPRTRTLIARAASDLPPMLAPVTELLDRTAHWTAP”, which “soluble on expression in E. coli” value is on record?
Its value is “not soluble”.

For “MGSDKIHHHHHHMSINSREVLAEKVKNAVNNQPVTDMHTHLFSPNFGEILLWDIDELLTYHYLVAEVMRWTDVSIEAFWAMSKREQADLIWEELFIKRSPVSEACRGVLTCLQGLGLDPATRDLQVYREYFAKKTSEEQVDTVLQLANVSDVVMTNDPFDDNERISWLEGKQPDSRFHAALRLDPLLNEYEQTKHRLRDWGYKVNDEWNEGSIQEVKRFLTDWIERMDPVYMAVSLPPTFSFPEESNRGRIIRDCLLPVAEKHNIPFAMMIGVKKRVHPALGDAGDFVGKASMDGVEHLLREYPNNKFLVTMLSRENQHELVVLARKFSNLMIFGCWWFMNNPEIINEMTRMRMEMLGTSFIPQHSDARVLEQLIYKWHHSKSIIAEVLIDKYDDILQAGWEVTEEEIKRDVADLFSRNFWRFVGRNDHVTSVKVEQQT”, which “soluble on expression in E. coli” value is on record?
Its value is “not soluble”.

For “MGSDKIHHHHHHMSKEASFEIQLPLFAGPFDLLLFFIERDELDIYDIPISKITNDFLEYIHRLEKMNVDIASEFILVAATLMRIKAKTLLPRPDIDPQGNEIDPREELVSHLLEYKKYKSVIAEFSELEETSLKREKRGNIAKELKLLSEVSNVETELQDIDLYKLLKVFEKVIVRWKEEKTKPVHHVVQYPYSIELQKEYIINKVSRGQRISFTEIINDIPVKMAVIYNFLSILELLALQKIQLHLGEGFNNFWIAQYDGEHAAVNEYANDIE”, which “soluble on expression in E. coli” value is on record?
Its value is “not soluble”.

For “MGSDKIHHHHHHMSKLFDCITDELQDFIAAQHLFFVGSAPLSPTGHVNLSPKGLGCFRVLSPKQVGYVDLTGSGNETSAHLQENGRITFMFCAFEEPACILRLYGQGNTILPSSPDWDSLYSLFLPMPGTRQIIVADIEKVQTSCGFGVPLYEYQGQRQTLVNWASKKGEEGVREYQQKKNLVSIDGLPTPLSKLS”, which “soluble on expression in E. coli” value is on record?
Its value is “not soluble”.

With “MGSDKIHHHHHHMSLFHLIAPSGYCIKQHAALRGIQRLTDAGHQVNNVEVIARRCERFAGTETERLEDLNSLARLTTPNTIVLAVRGGYGASRLLADIDWQALVARQQHDPLLICGHSDFTAIQCGLLAHGNVITFSGPMLVANFGADELNAFTEHHFWLALRNETFTIEWQGEGPTCRAEGTLWGGNLAMLISLIGTPWMPKIENGILVLEDINEHPFRVERMLLQLYHAGILPRQKAIILGSFSGSTPNDYDAGYNLESVYAFLRSRLSIPLITGLDFGHEQRTVTLPLGAHAILNNTREGTQLTISGHPVLKM” as the sequence, how does the “soluble on expression in E. coli” value read?
Its value is “not soluble”.

For “MGSDKIHHHHHHMSLFNIFDVSGSGMAAQSIRLNTTASNIANADSVSSSVDKTYRARHPIFEAELNKAHDQQNGTKGVQVRAIVESDKPLLKEYSPSHPMADGDGFIYKPNVNVMEEMADMISASRSYQMNVQVADATKTMLQQTLRMGK”, which “soluble on expression in E. coli” value is on record?
Its value is “not soluble”.

With “MGSDKIHHHHHHMSLNKNLNDIEKSQLIELMHESLRIRSHFELFLWMQGKLQVFLPHEIMITAWGDFSLGVIYFNIVSPLPGIRSDKIASHEINQFLQNLFNYWLNHAKAPFTLAAADNILHDCEFSNKESSYYLKNMKSALVHAIKDHRGRHDCLYVLLSSNLSFPPASRPMLEALLPYIDSALRQIEHLPEQQPTLIKAEPEPKDESLNILSGRELEIMDWVTKGKTNQEIGMILDISAFTVKNHLQRIFKKLNVMNRAQAVAKFRK” as the sequence, how does the “soluble on expression in E. coli” value read?
Its value is “not soluble”.

For “MGSDKIHHHHHHMSLPETPTIRIGMAMWSHPGWKTVFPGLDAEARLTAYSRVFGTVEGNTSFYALPSAQQVSIWQRATPEDFRFTFKLPRRITHELSLRNCREEVLQFFRLFEPLMAKTGVWKIQLPARFGPESLSVLTQFLSLLPEGIGLGVEVRHRAFFAKGEAEKDFNRLLMDKGINRIIMDTRPVFALPAINEAITDAHQKKPRVPVHPLATGAHPVVRFIAQPHTPAAWGPGGKPADLGCADNLAFFAPWLGKLAGWLAEGRSPYLFIHTPDNSDAPLLASELAKQVAAHLQALHPGLPIPSVMLDSAESDGGQIGLGLQ”, which “soluble on expression in E. coli” value is on record?
The value was “not soluble”.
